In patent US20220306728A1 (VIR BIOTECHNOLOGY, published 2022):

Tests used:
[1] = target: H3N2 representative viral strain (hemagglutinin), Example 6; assay: cell-based or functional assay
[2] = target: H1N1 representative viral strain (hemagglutinin), Example 6; assay: cell-based or functional assay

B1: FluAB_MLNS (antibody)
heavy: not shown
light: DIQMTQSPSSLSASVGDRVTITCRTSQSLSSYTHWYQQKPGKAPKLLIYAASSRGSGVPSRFSGSGSGTDFTLTISSLQPEDFATYYCQQSRTFGQGTKVEIKRTVAAPSVFIFPPSDEQLKSGTASVVCLLNNFYPREAKVQWKVDNALQSGNSQESVTEQDSKDSTYSLSSTLTLSKADYEKHKVYACEVTHQGLSSPVTKSFNRGEC
IC50 of in vitro neutralization (MDCK cells, neuraminidase activity read-out) [1]: 17.9 nM | IC50 of in vitro neutralization (MDCK cells, neuraminidase activity read-out) [2]: 15.6 nM
